The supplement of paper PMC12042874
± gives the uncertainty stated by the source.

Experiment: amyloid nucleation score (Sup35N fusion, yeast selection) (log enrichment); library NNK1; higher = more nucleation; inactive = no reads after selection
Method in brief: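 Output and input plasmid inserts were sequenced by Illumina after psi-negative yeast carrying Sup35N fused to peptides of 20 random codons had been induced 24 hours with 100 μM copper sulfate and grown 7 days at 30°C on medium lacking adenine and uracil. The nucleation score is the DiMSum log enrichment of output over input reads, centred on the mode score of non-aggregating sequences. Sequences with under 100 input reads were excluded.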

Substance	amyloid nucleation score
LNFVNAPRSHMSGYSIGGLC	-1.5 ± 1.7
LGCFGIAATKIRKVDMRLGG	0.729 ± 0.39
SGCRYSAIVGSPMRCNMYRS	-0.756 ± 2.4
GFYGNIYFDNLRLNVMTRRG	9.21 ± 0.061
CWGWMARLAINLAGTGSNQK	0.119 ± 0.71
GHPVWRCFSDGSSPLFWDYG	inactive
YSNLYFSLNNGNPVLKGYNG	-0.17 ± 0.65
GSDMCKSSVSECIKKLATIQ	inactive
SDMLK	0.324 ± 0.43
DVFRML	inactive
FAYRL	0.404 ± 0.44
SVCKCKLNERIEKWNYRSIR	0.227 ± 0.43
YSNLIDGS	7.378 ± 0.047
SGVLVGYHRDLDVDMNLNPM	-0.419 ± 0.4
FMRDFSGCSNDRFDGDLALC	0.024 ± 0.62
MRCGAL	0.2 ± 1.2
IYRSVANSMKVSEYQIPLDS	-0.18 ± 0.54
RLMSNYHEGAAHKGGKHMPW	-0.495 ± 0.65
LKKHADNSLDVRS	inactive
GVQFQVVRMSCSVLSARLRL	1.29 ± 0.18
MISGCLRVLMRAGVKHYVFM	0.369 ± 0.93
VSNSWAWPFRRNCGSECWFT	0.228 ± 0.33
EACNNQNFCRTSNGESSTTV	0.324 ± 0.75
GYHSMLSLDDQIFVKLHDAK	0.135 ± 1.2
CFFMEFYVPNSIIIYVRTPV	-1.89 ± 0.96

Substance	amyloid nucleation score
EVITNTNGIVWSFDELYSVM	inactive
FPLCSCHCYSSTWMCYRASL	0.048 ± 0.97
KLMVWITFGSWSRVGHWKGI	-0.387 ± 1.2
KYLVLHILHIWMCHRYVWGM	-0.973 ± 0.6
SRCCGPCYTAV	-0.115 ± 0.3
ITPYQQFWLIVDTIGNMMEI	2.07 ± 0.2
LATGHVFYGFG	-0.116 ± 0.36
FCNLYVEWFLGDNVKVTRYR	3.58 ± 0.095
KYRDLGSFMQSWAARHGTLL	-0.226 ± 0.68
WILPNNRMVFVLYTEQWWTF	2.33 ± 0.11
AYHNDWR	-0.85 ± 0.76
EGMNLV	0.196 ± 0.63
TLYHSI	-0.385 ± 0.56
LTQLYLVTSSTWVNYSYLKW	0.742 ± 0.58
NITFEVINQRCD	3.38 ± 0.12
QRCTIYRSSI	inactive
LYPKSFYTKYYEWYTSGLIF	0.236 ± 0.57
FGMSRW	0.166 ± 0.78
YYYEPLFPRELHSQLYLL	-0.268 ± 0.8
FYYYSSCHYWYC	-0.13 ± 0.79
THFTTYYYWSQWGLWLSFCQ	0.596 ± 0.31
MRVVPHVWLTWHEATVVLQV	0.807 ± 0.28
RTPFFKRICK	-0.303 ± 0.69
WRVSVKVVSAELEGMRNFAV	0.259 ± 0.49
VSRTLAWLGMSRLNGSYGVC	-0.197 ± 0.41

Substance	amyloid nucleation score
RLYIHHVIHVDKYNFGVYPP	0.245 ± 0.32
SGRPLNNVWGVTWEIMRLSL	-0.839 ± 0.86
TTFGRPSTPH	-0.393 ± 0.38
PITMQSMSFFRRVLLVFFLY	0.813 ± 0.5
NIEGRVYRIDSAGGPCIYVL	-0.621 ± 0.5
MTALFGRVSG	-0.134 ± 1.1
NSWDISRSMNVLGNRVNRFP	-0.765 ± 0.37
INLLVPFQNESVLELNATEW	0.772 ± 0.51
QCSMGGRYVRQDS	-0.197 ± 0.6
SSPSMSINVYRLNKS	inactive
LFLKFGGSFAVIFWILVAAV	0.74 ± 0.48
SLIKLVYWSHARNNCELW	3.5 ± 0.074
QSTNLAFLRICECSE	3.8 ± 0.071
TMIWLVAPPPLLAMVLY	0.392 ± 0.6
RYYVSSLRPVRRQSRKDGCG	-0.414 ± 0.63
GVALFVIGLNSQIVANSYTS	6.285 ± 0.055
FQARHIFHVFLVSSSRVRLT	1.65 ± 0.47
FWDVTPWCHSRDCAVLFSRA	-1.37 ± 2.7
FSFVSECGLAGFYPRE	0.35 ± 0.55
SGMHHHDKARNRG	1.26 ± 0.59
GIFSNLEVGYKPKN	-0.694 ± 0.39
AESLWQFTWQVTKPHEEGSE	4.35 ± 0.068
SWLCHRTSVLVPVVSISRKL	1.15 ± 0.7
HTISENRSGLVTP	-0.966 ± 0.9
YMYEMGICFELDDTHEG	0.608 ± 0.55

Substance	amyloid nucleation score
DTLLKF	0.916 ± 0.74
WPIRVMMGYRLLGMDRNVFG	0.129 ± 0.68
AQDLPLVTRNCKCMRRHLWV	-0.171 ± 0.42
SVAHMVDISFVVHPVMSTGN	-1.1 ± 0.82
RRICSNCLFSGGIWNISGWV	0.509 ± 1.1
VSCCSNLVY	0.144 ± 0.26
GSNLVQKRRCYSWMSLYLSS	0.333 ± 0.26
IDSGRAKRLSHMIWISVRHG	-1.93 ± 2.7
FVVVVGSHLGDGFCDCWVNC	2.03 ± 0.24
CDVLFGLLSLRYLPSSLRIG	-0.434 ± 0.48
MPYLNGHYRH	inactive
QDRPYVFY	-0.331 ± 0.44
KFVYSVGMTLSSGSFSVEIF	5.02 ± 0.053
ALCFGR	inactive
GQHMASNLERMV	3.34 ± 0.085
LRVNGEKIKASLPFEGD	0.197 ± 0.51
FCGAVVFNVVWCYWNKIAVL	1.79 ± 0.12
PNTLYSLTIIMSARLNSSLL	0.371 ± 0.57
ECSGVNLNTSYLPGVQEATM	0.715 ± 0.2
VESVSWVCDRCTGLVLVWSG	inactive
MFSTKSH	0.543 ± 0.49
PGFPNLVTSRTLIVCQL	inactive
GRFVEMRLEHYRLNSRENSL	-1.75 ± 2.7
AYGKRTNTRICDNKTLGVSS	-0.745 ± 2.4
FMEVWRYWRFIVSRERFNHI	-0.207 ± 0.78

Substance	amyloid nucleation score
MYTSRQNSARNRKLNSIAGF	-0.721 ± 0.77
CGLLVVLRANVFILCGYK	0.399 ± 0.24
DKSNRTCNWQFNNICCL	8.386 ± 0.049
CLTKEYVRGFLNPGRHRTRQ	-0.271 ± 0.36
DQYIGGFGFNYETFVTRNLV	-0.861 ± 0.49
MMFSRILCNGDPQGSARWLS	inactive
VTSSFWFFNDADSRQ	3.24 ± 0.1
CIYELRGLVRFWSHRVNRER	-0.445 ± 0.45
VKPLLIHIRALLEM	1.55 ± 0.52
TWMNASCKSCTYAARFSDQK	1.51 ± 0.56
IKIRAICVCMFDSQEGLGET	0.601 ± 0.43
NAVTFLHIVLRENNHGRMHK	6.21 ± 0.073
YCVQFVRLMLKKNGRGYNYR	-0.762 ± 1.1
HHALHAKAERLTPPMPPCKM	0.714 ± 0.84
SVRYWAYRFVHF	inactive
CLGHISVMNVTASNANYHFS	7.237 ± 0.053
CITFMVRYGLRLHR	0.089 ± 0.58
VRQNNGQMFFYWSWFIGNNP	8.12 ± 0.063
STFWENIIVFFHGPYHDMHT	-0.647 ± 0.69
SRWPTHGSQIFVLTESVLTN	0.062 ± 0.55
AGFVSVVVF	0.005 ± 0.38
YDAIYV	0.368 ± 0.63
AMQYYIHQLVVDLSGLM	6.57 ± 0.077
GLKALILNSSSCCRARFGAA	0.307 ± 0.23
YFSLSVIREVCFFVPWKLRS	0.14 ± 0.43

Substance	amyloid nucleation score
YSCMGECFTC	7.89 ± 0.067
VLTTGTYFATVYIK	inactive
LTVMMLGFGHVQCMS	-0.003 ± 0.26
FRWRSSGGLVCFLDAVVVSV	-0.249 ± 0.38
VTNVSLDCGALCSCELCKKS	7.155 ± 0.063
SQSTLCSHTP	1.13 ± 0.74
VTGKTLTLIEFFIHSQPLSR	0.217 ± 0.32
WYVLCYGPRFFYMSRLS	-0.411 ± 0.3
FSSSTRSLNNPLL	0.006 ± 0.44
LGCLYIA	-0.711 ± 0.44
VWGINILMSFPIV	5.674 ± 0.053
GRGANLCYRTRTVLLVNNLS	-0.199 ± 1.2
CLIRIVKF	1.08 ± 0.7
WFSYYLLFRYNDNLSRAERS	0.456 ± 0.61
RMYITMSQSRKVVICVMMVM	-0.164 ± 1.1
EDDLN	0.271 ± 0.38
KDRWTCSFVAVCMRYLFAKS	0.134 ± 0.46
HLPTKLPSRIRYRCYDFHVI	-0.546 ± 0.97
VEAESFARCDRHVHRQTIGG	0.369 ± 0.54
MAFYSTSLSFSEGGIRCSIY	5.14 ± 0.08
WTLQMLAYWYLTFFFPSFVY	0.169 ± 0.37
YWLNNYYVVGNIS	2.57 ± 0.25
GKYMFPCCMTAITQKLRPRR	-0.108 ± 0.33
RTMLMLMTSVLGGQGK	7.02 ± 0.079
MDLHTACVYSKVGMTLDQPS	0.343 ± 0.39

Substance	amyloid nucleation score
SDYIWWRLCGGIKCQGGELG	-1.74 ± 2.1
VFSFLPSYGHKCTAKQFFSA	-0.3 ± 1.4
MSLMSRDVVMHIGMSWYSRG	4.21 ± 0.12
GEGQQSGVVSNLSGYRSNS	0.418 ± 0.51
FVEMVYFNECCIPKFDIEYV	1.6 ± 0.17
LDRAVHPGVVSPWSQVTRTM	0.749 ± 0.38
FCYFRVFVKSILDDWN	0.278 ± 0.31
YLKGVG	0.104 ± 0.74
RHDALLSGLYHCRCNQLNVC	4.2 ± 0.074
TKSTLL	-0.296 ± 0.64
VYAYTQLKQGRRHEQGTWS	inactive
KYLACILCSKLLTQSNSRNI	7.687 ± 0.058
DCYREVSYFKFQNTKGSGSW	3.33 ± 0.14
LMVYK	0.575 ± 0.55
SMWVWMHICEAMG	4.6 ± 0.11
RRSYDSLFVVVRRINTCSSP	-0.852 ± 1.1
EVYRVTAYVLFYGICQLTLE	-0.53 ± 0.32
SNISSHQEASWRAYRFSESV	0.147 ± 0.57
HHGRFRCKAVCRRKCGLVQV	inactive
MGVLKWLATRLDWFKKIMCR	2.3 ± 0.13
